Biological target: T1, Tt-Slx1 E79Q-Slx4CCD3 (Thielavia terrestris, UniProt G2QV68;G2RCY5 1-324;834-936, E79Q)
T1 sequence 1: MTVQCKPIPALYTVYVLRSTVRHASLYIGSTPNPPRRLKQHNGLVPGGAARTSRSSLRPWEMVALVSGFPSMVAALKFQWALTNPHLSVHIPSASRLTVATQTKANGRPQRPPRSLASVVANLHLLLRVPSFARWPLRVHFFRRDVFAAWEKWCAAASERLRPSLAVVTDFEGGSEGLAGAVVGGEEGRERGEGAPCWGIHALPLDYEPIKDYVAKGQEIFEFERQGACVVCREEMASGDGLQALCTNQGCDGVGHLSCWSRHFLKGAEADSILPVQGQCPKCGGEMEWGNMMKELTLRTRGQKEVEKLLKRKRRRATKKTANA
T1 sequence 2: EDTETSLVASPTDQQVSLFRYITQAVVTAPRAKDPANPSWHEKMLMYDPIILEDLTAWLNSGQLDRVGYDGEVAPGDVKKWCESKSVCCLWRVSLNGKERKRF
Assay: X-ray crystallography; Zn2+ in RING domain; 0.2 M CaCl2, 5 mM EDTA, pH 6.0; 2.7 A; Fluorescence anisotropy: 20 mM HEPES pH 7.5, 2.5 mM CaCl2, 100 mM NaCl, 0.1 mg/ml BSA, 25 C; 25 nM DNA, 0-500 nM protein
Conditions: protein: recombinant; tags: N-terminal 6xHis on Slx1; Slx4CCD3 untagged; chain copies: 2;2; self-annealed splayed arm; single G-A mismatch and unpaired bases in crystal

B1: self-annealing splayed-arm crystallization DNA (structured_DNA)
DNA: CAATCGGCAATGACCTTTGGTCATTCGGCAGAT
Does B1 bind?
Result: binds

— publication PMC6902002, “Recognition and processing of branched DNA substrates by Slx1–Slx4 nuclease”
